# Measured values reported in PMC12102759 (2025).
# B1: AMOTL2 peptide 64-79 (Angiomotin-like protein 2), 16-mer library wild type / TNKS ANK (TNKS 12 ANK repeats, residues 174-649) (parent complex)
# chain 1: QVLQQATRQEPQGQEH
# chain 2: TGVPAVSGALRELLEACRNGDVSRVKRLVDAANVNAKDMAGRKSSPLHFAAGFGRKDVVEHLLQMGANVHARDDGGLIPLHNACSFGHAEVVSLLLCQGADPNARDNWNYTPLHEAAIKGKIDVCIVLLQHGADPNIRNTDGKSALDLADPSAKAVLTGEYKKDELLEAARSGNEEKLMALLTPLNVNCHASDGRKSTPLHLAAGYNRVRIVQLLLQHGADVHAKDKGGLVPLHNACSYGHYEVTELLLKHGACVNAMDLWQFTPLHEAASKNRVEVCSLLLSHGADPTLVNCHGKSAVDMAPTPELRERLTYEFKGHSLLQAAREADLAKVKKTLALEIINFKQPQSHETALHCAVASLHPKRKQVTELLLRKGANVNEKNKDFMTPLHVAAERAHNDVMEVLHKHGAKMNALDTLGQTALHRAALAGHLQTCRLLLSYGSDPSIISLQGFTAAQMGNEAVQQILSESTPIRTSD
# B2: AMOTL2 peptide 66-81 (Angiomotin-like protein 2), 16-mer library wild type / TNKS ANK (TNKS 12 ANK repeats, residues 174-649) (parent complex)
# chain 1: LQQATRQEPQGQEHQG
# chain 2: B1 chain 2
# Variants of: B1
# Assay: proteomic peptide phage display deep mutational scan (ProP-PD DMS): M13 P8 16-mer library selected against immobilised GST-tagged bait for four days (rounds), NGS of the eluted pools per day and pseudo-replica; bait immobilised on MaxiSorp plates (10 µg), library pre-cleared on GST, 2 h binding at 4 °C, five washes; one round per day, days 1-4; value from days 2 and 3
row,Variant,screen value
1,chain 1 Q14E,"0.000547 average fractional NGS count over selection days 2 and 3 (reads of this peptide / all reads for the bait, averaged over …"
2,chain 1 V2Y,"0.000153 average fractional NGS count over selection days 2 and 3 (reads of this peptide / all reads for the bait, averaged over …"
3,chain 1 V2G,"0.000586 average fractional NGS count over selection days 2 and 3 (reads of this peptide / all reads for the bait, averaged over …"
4,chain 1 V2F,"0.000314 average fractional NGS count over selection days 2 and 3 (reads of this peptide / all reads for the bait, averaged over …"
5,chain 1 V2L,"0.0017 average fractional NGS count over selection days 2 and 3 (reads of this peptide / all reads for the bait, averaged over …"
6,chain 1 V2Q,"0.000414 average fractional NGS count over selection days 2 and 3 (reads of this peptide / all reads for the bait, averaged over …"
7,chain 1 V2P,"0.000487 average fractional NGS count over selection days 2 and 3 (reads of this peptide / all reads for the bait, averaged over …"
8,chain 1 Q12T,"0.0005 average fractional NGS count over selection days 2 and 3 (reads of this peptide / all reads for the bait, averaged over …"
9,chain 1 E15T,"0.00184 average fractional NGS count over selection days 2 and 3 (reads of this peptide / all reads for the bait, averaged over …"
10,chain 1 T7W,"0.00146 average fractional NGS count over selection days 2 and 3 (reads of this peptide / all reads for the bait, averaged over …"
11,chain 1 L3F,"0.00165 average fractional NGS count over selection days 2 and 3 (reads of this peptide / all reads for the bait, averaged over …"
12,chain 1 H16D,"0.000297 average fractional NGS count over selection days 2 and 3 (reads of this peptide / all reads for the bait, averaged over …"

# Variants of: B2
# Assay: as above
row,Variant,screen value
1,chain 1 Q2T,"0.00025 average fractional NGS count over selection days 2 and 3 (reads of this peptide / all reads for the bait, averaged over …"
2,chain 1 Q2A,"0.000379 average fractional NGS count over selection days 2 and 3 (reads of this peptide / all reads for the bait, averaged over …"
3,chain 1 Q2S,"0.00082 average fractional NGS count over selection days 2 and 3 (reads of this peptide / all reads for the bait, averaged over …"
4,chain 1 Q2D,"0.000375 average fractional NGS count over selection days 2 and 3 (reads of this peptide / all reads for the bait, averaged over …"
5,chain 1 Q2M,"0.000757 average fractional NGS count over selection days 2 and 3 (reads of this peptide / all reads for the bait, averaged over …"
6,chain 1 Q2P,"0.000458 average fractional NGS count over selection days 2 and 3 (reads of this peptide / all reads for the bait, averaged over …"
7,chain 1 Q2N,"0.000675 average fractional NGS count over selection days 2 and 3 (reads of this peptide / all reads for the bait, averaged over …"
8,chain 1 Q2K,"0.000265 average fractional NGS count over selection days 2 and 3 (reads of this peptide / all reads for the bait, averaged over …"
9,chain 1 Q2I,"0.000122 average fractional NGS count over selection days 2 and 3 (reads of this peptide / all reads for the bait, averaged over …"
10,chain 1 Q2H,"0.00198 average fractional NGS count over selection days 2 and 3 (reads of this peptide / all reads for the bait, averaged over …"
11,chain 1 Q2L,"0.00083 average fractional NGS count over selection days 2 and 3 (reads of this peptide / all reads for the bait, averaged over …"
12,chain 1 Q2G,"0.00015 average fractional NGS count over selection days 2 and 3 (reads of this peptide / all reads for the bait, averaged over …"
13,chain 1 Q2V,"0.000551 average fractional NGS count over selection days 2 and 3 (reads of this peptide / all reads for the bait, averaged over …"
14,chain 1 Q2Y,"0.000109 average fractional NGS count over selection days 2 and 3 (reads of this peptide / all reads for the bait, averaged over …"
15,chain 1 Q12I,"9.74e-05 average fractional NGS count over selection days 2 and 3 (reads of this peptide / all reads for the bait, averaged over …"
16,chain 1 Q12A,"0.000321 average fractional NGS count over selection days 2 and 3 (reads of this peptide / all reads for the bait, averaged over …"
17,chain 1 Q12L,"0.000442 average fractional NGS count over selection days 2 and 3 (reads of this peptide / all reads for the bait, averaged over …"
18,chain 1 Q12M,"0.000359 average fractional NGS count over selection days 2 and 3 (reads of this peptide / all reads for the bait, averaged over …"
19,chain 1 Q12F,"0.000217 average fractional NGS count over selection days 2 and 3 (reads of this peptide / all reads for the bait, averaged over …"
20,chain 1 Q12Y,"0.000541 average fractional NGS count over selection days 2 and 3 (reads of this peptide / all reads for the bait, averaged over …"
21,chain 1 Q12H,"0.00103 average fractional NGS count over selection days 2 and 3 (reads of this peptide / all reads for the bait, averaged over …"

row,Variant,screen value
1,chain 1 Q12W,"0.000131 average fractional NGS count over selection days 2 and 3 (reads of this peptide / all reads for the bait, averaged over …"
2,chain 1 Q10L,"0.00347 average fractional NGS count over selection days 2 and 3 (reads of this peptide / all reads for the bait, averaged over …"
3,chain 1 Q10W,"0.000745 average fractional NGS count over selection days 2 and 3 (reads of this peptide / all reads for the bait, averaged over …"
4,chain 1 Q10S,"0.000273 average fractional NGS count over selection days 2 and 3 (reads of this peptide / all reads for the bait, averaged over …"
5,chain 1 Q10Y,"0.00045 average fractional NGS count over selection days 2 and 3 (reads of this peptide / all reads for the bait, averaged over …"
6,chain 1 Q10H,"0.000277 average fractional NGS count over selection days 2 and 3 (reads of this peptide / all reads for the bait, averaged over …"
7,chain 1 Q10I,"0.000713 average fractional NGS count over selection days 2 and 3 (reads of this peptide / all reads for the bait, averaged over …"
8,chain 1 Q10D,"0.00111 average fractional NGS count over selection days 2 and 3 (reads of this peptide / all reads for the bait, averaged over …"
9,chain 1 Q10E,"0.000182 average fractional NGS count over selection days 2 and 3 (reads of this peptide / all reads for the bait, averaged over …"
10,chain 1 A4Y,"0.00172 average fractional NGS count over selection days 2 and 3 (reads of this peptide / all reads for the bait, averaged over …"
11,chain 1 A4N,"0.000378 average fractional NGS count over selection days 2 and 3 (reads of this peptide / all reads for the bait, averaged over …"
12,chain 1 A4T,"0.000212 average fractional NGS count over selection days 2 and 3 (reads of this peptide / all reads for the bait, averaged over …"
13,chain 1 A4S,"0.000138 average fractional NGS count over selection days 2 and 3 (reads of this peptide / all reads for the bait, averaged over …"
14,chain 1 A4H,"0.000353 average fractional NGS count over selection days 2 and 3 (reads of this peptide / all reads for the bait, averaged over …"
15,chain 1 A4D,"0.000175 average fractional NGS count over selection days 2 and 3 (reads of this peptide / all reads for the bait, averaged over …"
16,chain 1 A4G,"0.00149 average fractional NGS count over selection days 2 and 3 (reads of this peptide / all reads for the bait, averaged over …"
17,chain 1 A4R,"0.000178 average fractional NGS count over selection days 2 and 3 (reads of this peptide / all reads for the bait, averaged over …"
18,chain 1 A4M,"0.00014 average fractional NGS count over selection days 2 and 3 (reads of this peptide / all reads for the bait, averaged over …"
19,chain 1 A4W,"0.000419 average fractional NGS count over selection days 2 and 3 (reads of this peptide / all reads for the bait, averaged over …"
20,chain 1 A4F,"0.000957 average fractional NGS count over selection days 2 and 3 (reads of this peptide / all reads for the bait, averaged over …"
21,chain 1 A4V,"0.000321 average fractional NGS count over selection days 2 and 3 (reads of this peptide / all reads for the bait, averaged over …"

row,Variant,screen value
1,chain 1 A4Q,"0.00114 average fractional NGS count over selection days 2 and 3 (reads of this peptide / all reads for the bait, averaged over …"
2,chain 1 H14Q,"0.000459 average fractional NGS count over selection days 2 and 3 (reads of this peptide / all reads for the bait, averaged over …"
3,chain 1 H14N,"0.000168 average fractional NGS count over selection days 2 and 3 (reads of this peptide / all reads for the bait, averaged over …"
4,chain 1 H14A,"0.00145 average fractional NGS count over selection days 2 and 3 (reads of this peptide / all reads for the bait, averaged over …"
5,chain 1 H14M,"0.000405 average fractional NGS count over selection days 2 and 3 (reads of this peptide / all reads for the bait, averaged over …"
6,chain 1 H14I,"0.000314 average fractional NGS count over selection days 2 and 3 (reads of this peptide / all reads for the bait, averaged over …"
7,chain 1 H14S,"0.000117 average fractional NGS count over selection days 2 and 3 (reads of this peptide / all reads for the bait, averaged over …"
8,chain 1 H14V,"0.00237 average fractional NGS count over selection days 2 and 3 (reads of this peptide / all reads for the bait, averaged over …"
9,chain 1 H14E,"0.000155 average fractional NGS count over selection days 2 and 3 (reads of this peptide / all reads for the bait, averaged over …"
10,chain 1 H14F,"0.00233 average fractional NGS count over selection days 2 and 3 (reads of this peptide / all reads for the bait, averaged over …"
11,chain 1 H14L,"0.000412 average fractional NGS count over selection days 2 and 3 (reads of this peptide / all reads for the bait, averaged over …"
12,chain 1 H14W,"0.00121 average fractional NGS count over selection days 2 and 3 (reads of this peptide / all reads for the bait, averaged over …"
13,chain 1 H14R,"0.00174 average fractional NGS count over selection days 2 and 3 (reads of this peptide / all reads for the bait, averaged over …"
14,chain 1 Q7H,"0.00159 average fractional NGS count over selection days 2 and 3 (reads of this peptide / all reads for the bait, averaged over …"
15,chain 1 Q7M,"0.00184 average fractional NGS count over selection days 2 and 3 (reads of this peptide / all reads for the bait, averaged over …"
16,chain 1 Q7L,"0.00305 average fractional NGS count over selection days 2 and 3 (reads of this peptide / all reads for the bait, averaged over …"
17,chain 1 Q7A,"0.000124 average fractional NGS count over selection days 2 and 3 (reads of this peptide / all reads for the bait, averaged over …"
18,chain 1 Q7F,"0.000322 average fractional NGS count over selection days 2 and 3 (reads of this peptide / all reads for the bait, averaged over …"
19,chain 1 Q7N,"0.000208 average fractional NGS count over selection days 2 and 3 (reads of this peptide / all reads for the bait, averaged over …"
20,chain 1 Q7Y,"0.000137 average fractional NGS count over selection days 2 and 3 (reads of this peptide / all reads for the bait, averaged over …"
21,chain 1 Q7P,"0.000611 average fractional NGS count over selection days 2 and 3 (reads of this peptide / all reads for the bait, averaged over …"
